Patent US20230192896A1 (BIOVERATIV THERAPEUTICS, published 2023)
Changes are numbered by the printed parent chain. One block for each binder: values may come before it.

What was measured:
FIXa-SM (FIXa+EGR-CMK) [1] = target: T1, FIXa-SM (FIXa+EGR-CMK) (human, UniProt P00740 47-191; P00740 227-461, EGR-CMK (L-Glu-Gly-Arg chloromethyl ketone) covalently bound to the active site); test: BLI; class meaning: paragraph 914
T1 construct: BLI antigen bought from Haematologic Technologies (HCIXA-EGR); also called FIXa with substrate mimic

[2] = target: T2, free FIXa (activated Factor IX) (human, UniProt P00740 47-191; P00740 227-461); test: BLI, 200 nM FIXa in HBS with or without 5 mM CaCl2
T2 construct: BLI antigen bought from Haematologic Technologies (HCIXA-0050); also called factor IXa

[3] = target: T2, free FIXa (activated Factor IX); test: Fab mixed 1.5:1 with FIXa, complex purified by size exclusion chromatography
Excerpt: To do this, we first cloned, expressed, and purified only the Fab portion of each of these antibodies using standard methods. Subsequently, we mixed each Fab in a 1.5:1 molar ratio with FIXa in a calcium containing buffer and purified the resulting complex from excess Fab using size exclusion chromatography.

[4] = target: T3, FIX zymogen (non-activatable FIX) (human, UniProt P00740 47-461); test: not stated (FIG. 24B)
T3 construct: also called FIXn; Factor IX zymogen

[5] = target: T2, free FIXa (activated Factor IX); test: not stated (FIG. 24B)
FX zymogen [6] = target: T4, FX zymogen (Homo sapiens (Human), UniProt P00742 41-179; P00742 183-488); test: not stated (FIG. 24B)
T4 construct: Light and heavy chain of secreted FX zymogen, disulfide linked; also called Factor X zymogen; factor X zymogen
T4 sequence (P00742 41-179, chain 1 of 2): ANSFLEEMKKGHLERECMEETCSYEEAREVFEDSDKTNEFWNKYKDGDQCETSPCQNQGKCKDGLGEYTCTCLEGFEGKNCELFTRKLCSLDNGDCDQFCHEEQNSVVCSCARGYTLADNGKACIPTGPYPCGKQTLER
T4 sequence (P00742 183-488, chain 2 of 2): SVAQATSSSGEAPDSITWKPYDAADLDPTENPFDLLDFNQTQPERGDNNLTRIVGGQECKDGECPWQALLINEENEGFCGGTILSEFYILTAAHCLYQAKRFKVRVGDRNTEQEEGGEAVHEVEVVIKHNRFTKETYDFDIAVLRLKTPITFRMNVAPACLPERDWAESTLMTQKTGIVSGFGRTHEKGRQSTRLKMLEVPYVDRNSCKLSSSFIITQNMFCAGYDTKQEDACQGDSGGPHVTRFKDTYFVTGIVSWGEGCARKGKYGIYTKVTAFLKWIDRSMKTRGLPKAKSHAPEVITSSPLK

[7] = target: T2, free FIXa (activated Factor IX); test: cell-based or functional assay
FIXa-SM (FIXa+EGR-CMK) [8] = target: T1, FIXa-SM (FIXa+EGR-CMK); test: BLI co-binding: biotinylated FIXa-SM on streptavidin sensor, then 100 nM bispecific, then 200 nM FX
Description: Following incubation in Tris-buffered saline supplemented with 0.1% bovine serum albumin and 5 mM CaCl₂ (referred to as buffer in FIG. 21), the biosensors were then incubated with biotinylated FIXa-SM produced in-house. […] Finally, the same biosensors were incubated with 200 nM of non-biotinylated FX (non-activated Factor X).

FX zymogen [9] = target: T4, FX zymogen; test: not stated (Table 3)
activated Factor X (FXa) = target: T5, activated Factor X (FXa) (Homo sapiens (Human), UniProt P00742 41-179; P00742 235-488); test: BLI, antibody on AHQ sensor
T5 construct: also called free FXa; factor Xa
T5 sequence (P00742 41-179, chain 1 of 2): as the sequence (P00742 41-179, chain 1 of 2) above
T5 sequence (P00742 235-488, chain 2 of 2): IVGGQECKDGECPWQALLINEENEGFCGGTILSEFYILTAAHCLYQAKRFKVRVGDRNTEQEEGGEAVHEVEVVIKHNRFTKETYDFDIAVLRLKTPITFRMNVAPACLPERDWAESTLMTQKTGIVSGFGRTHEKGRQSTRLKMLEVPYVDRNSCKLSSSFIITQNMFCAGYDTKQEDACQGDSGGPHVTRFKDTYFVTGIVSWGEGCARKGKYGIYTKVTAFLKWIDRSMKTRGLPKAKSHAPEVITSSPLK

binding result (FIXa-SM (FIXa+EGR-CMK) [1]): binds | binding result [2]: binds
B1: BIIB-9-484 (antibody, V domains shown)
VH: EVQLVESGGGLVKPGGSLRLSCAASGFTFSSYSMNWVRQAPGKGLEWVSSISSSSSYIYYADSVKGRFTISRDNAKNSLYLQMNSLRAEDTAVYYCARDVGGYAGYYGMDVWGQGTTVTVSS
VL: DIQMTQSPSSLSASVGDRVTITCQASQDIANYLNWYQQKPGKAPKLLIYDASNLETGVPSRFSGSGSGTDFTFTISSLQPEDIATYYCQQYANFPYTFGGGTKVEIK
notes: IgG

binding result [3]: binds
B2: Fab portion of BIIB-9-484 (Fab, V domains shown)
VH: B1 VH
VL: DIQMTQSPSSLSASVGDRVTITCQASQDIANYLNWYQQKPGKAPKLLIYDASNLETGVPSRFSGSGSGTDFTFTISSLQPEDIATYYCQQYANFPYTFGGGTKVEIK
notes: Fab

Kd [4]: 0.008 µM | Kd [5]: 0.002 µM | Kd (FX zymogen [6]): 0.02 µM | rate of substrate (ADG299) cleavage by FIXa (amidolytic activity) [7]: 3 fold
B3: BS-027125 (bispecific antibody, V domains shown)
VH 1: B1 VH with S30G, S33D, S54G, S55E, D62E
VL 1: not shown
VH 2: EVQLVQSGAEVKKPGESLKISCKGSGYSFTTYWIGWVRQMPGKGLEWMGIIYPGDSDTRYSPSFQGQVTISADKSISTAYLQWSSLKASDTAMYYCARGRFRPRGRFDYWGQGTLVTVSS
VL 2: EIVMTQSPATLSVSPGERATLSCRASQSVSSNLAWYQQKPGQAPRLLIYGASTRATGIPARFSGSGSGTEFTLTISSLQSEDFAVYYCQQLFNHPPTFGGGTKVEIK

binding result (FIXa-SM (FIXa+EGR-CMK) [8]): binds
B4: BIIB-9-484/BIIB-12-917 (bispecific antibody, V domains shown)
VH 1: B1 VH
VL 1: not shown
VH 2: B3 VH 2
VL 2: B3 VL 2

Kd (FX zymogen [9]): 0.02 µM
B5: BS-027 (antibody, V domains shown)
VH: B3 VH 2
VL: B3 VL 2
notes: also called anti-FX arm of BS-027025 and BS-027125; BS-027 FX homodimer

binding result (activated Factor X (FXa)): no binding (tested: 250 nM)
B6: BIIB-12-917 (antibody, V domains shown)
VH: B3 VH 2
VL: B3 VL 2
notes: IgG
